Common to all, as to experiment: ELISA
What all share (conditions): one partner purified
For orientation: An ELISA detects its analyte on a solid surface through an enzyme-linked reagent.

The target of test [1] is T1, recombinant A/California/04/2009 H1N1 HA (Influenza A virus A/California/04/2009 …, UniProt C3W5S1, strain).
T1 construct: source: bought: Sino Biological Inc

Test [2] addresses recombinant A/Netherlands/219/03 (H7N7) HA (Influenza A virus …, UniProt Q6VMK1, strain).
The target of a further test is T2, bovine serum albumin (Bos taurus, UniProt P02769).
T2 construct: also called BSA

Test [3] concerns the target recombinant A/Turkey/1/2005 (H5N1) HA (Influenza A virus …, UniProt Q207Z6, strain).
Test [4] concerns the target recombinant A/Anhui/1/05 (H5N1) HA (Influenza A virus A/Anhui/1/2005 (H5N1), UniProt Q1WDM0, strain).

These results are taken from PMC3618430 (PLoS ONE, 2013).

T2 sequence (P02769 25-607): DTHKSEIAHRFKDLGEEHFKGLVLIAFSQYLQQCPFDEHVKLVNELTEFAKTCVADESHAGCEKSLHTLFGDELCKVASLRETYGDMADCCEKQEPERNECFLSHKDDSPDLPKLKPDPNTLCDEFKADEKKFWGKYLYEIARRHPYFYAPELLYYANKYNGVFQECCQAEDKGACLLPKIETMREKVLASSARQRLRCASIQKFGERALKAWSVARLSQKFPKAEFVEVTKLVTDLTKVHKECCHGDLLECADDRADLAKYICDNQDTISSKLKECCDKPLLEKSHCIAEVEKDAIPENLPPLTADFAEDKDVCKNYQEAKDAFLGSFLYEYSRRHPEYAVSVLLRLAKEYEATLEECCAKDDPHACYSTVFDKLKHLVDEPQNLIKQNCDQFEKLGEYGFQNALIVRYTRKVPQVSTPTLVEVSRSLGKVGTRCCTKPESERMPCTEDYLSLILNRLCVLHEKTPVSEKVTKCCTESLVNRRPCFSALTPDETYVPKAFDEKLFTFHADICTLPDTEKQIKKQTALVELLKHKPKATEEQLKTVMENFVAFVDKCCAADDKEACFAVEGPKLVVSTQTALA

B1: A3 Fab displayed on phage (Fab, V domains shown)
VH: QVTLKESGPGILKPSQTLSLTCSFSGFSLSTSGMGVGWIRQSSGKGLEWLANIWWDDDKYYNPSLKSQLTISKDTSRNQVFLKITSVDTADTATYYCARRGEYDAMDYWGQGTSVTVSS
VL: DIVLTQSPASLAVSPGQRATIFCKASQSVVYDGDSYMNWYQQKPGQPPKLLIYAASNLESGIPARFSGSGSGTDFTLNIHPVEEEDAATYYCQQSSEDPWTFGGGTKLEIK
notes: also called clone A3; Fab-phage A3; source: E. coli TG-1 with helper phage KM13, phage PEG-precipitated
Consider B1, for which the binding result is listed as “no binding” in test [1]; “no binding” in test [2]; “no binding” in the test with bovine serum albumin; “binds” in test [3]; “binds” in test [4].

B2: A4 Fab displayed on phage (Fab, V domains shown)
VH: QVTLKESGPGILKPSQTLSLTCSFSGFSLSTSGMGVGWIRQPSGKGLEWLANIWWDDDKYYNPSLKSQLTISKDTSRNQVFLKITSVDTADTATYYCARRGKYDSMDYWGQGTSVTVSS
VL: DIVLTQSPASLAMSLGQRATISCKASQSVVYDGDSYMNWYQQKPGQPPKLLIYAASNLESGIPARFSGSGSGTDFTLNIHPVEEEDAATYYCQQSSEDPWTFGGGTKLEIK
notes: also called clone A4; Fab-phage A4; source: E. coli TG-1 with helper phage KM13, phage PEG-precipitated
For the molecule B2, the binding result is on record as “no binding” in test [1]; “no binding” in test [2]; “no binding” in the test with bovine serum albumin; “binds” in test [3]; “binds” in test [4].

B3: D4 Fab displayed on phage (Fab, V domains shown)
VH: QVTLKESGPGILKPSQTLSLTCSFSGFSLNTSGMGVGWIRQPSGKGLEWLANIWWDDDKYYNPSLKSHLTISKDTSGNQVFLKITSVDTADSATYYCARRGDYDSLDYWGQGTSVTVSS
VL: DIVLTQSPGSLSVSLGQRATISCKASQSVDYDGDSYMNWYQQKPGQPPKLLIYAASNLESGIPARFSGSGSGTDFTLNIHPVEEEDAATYYCQQSSEDPWTFGGGTKLEIK
notes: also called clone D4; Fab-phage D4; source: E. coli TG-1 with helper phage KM13, phage PEG-precipitated
On to B3, for which the binding result was “no binding” in test [1]; “no binding” in test [2]; “no binding” with bovine serum albumin; “binds” in test [3]; “binds” in test [4].

B4: D8 Fab displayed on phage (Fab, V domains shown)
VH: QVTLKESGPGILKPSQTLSLTCSFSGFSLSTPGMGVGWIRQPSGKGLEWLANIWWDDDKYYNPSLKSQLTISKDTSRNQVFLKITSVDTTDTATYYCARRGNYDAMDYWGQGTSVTVSS
VL: DIVLTQSPASLAMSLGQRATISCKASQSVVYDGDSYMNWYQQKPGQPPKLLIYAASNLESGIPARFSGSGSGTDFTLNIHPVEEEDAATYYCQQSSEDPWTFGGGTKLEIK
notes: also called clone D8; Fab-phage D8; source: E. coli TG-1 with helper phage KM13, phage PEG-precipitated
Take B4: the binding result in test [1] is recorded as “no binding”; in test [2], “no binding”; with bovine serum albumin it was “no binding”; in test [3], “binds”; in test [4] it was “binds”.
